Measurements from PMC7682656.

Molecular target: His6-tagged NBDY (human)
Experiment: SPR + ITC

purified EDC4 WD40 domain (residues 72-528) (from UniProt Q6P2E9 72-528) (domain or fragment)
Kd: 1 µM
